Experimental data taken from the supplement of paper PMC9112550, “Optimization of the antimicrobial peptide Bac7 by deep mutational scanning” (BMC Biology, 2022).

System: Escherichia coli TOP10
Test: shrunken log2 fold change of peptide-encoding DNA abundance (4.5 h post-induction vs induction); higher = less antimicrobial activity (less host growth inhibition)
Conditions: time post-induction: 4.5 h; library: site-saturation at positions 5, 18, 19, 20
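Also: peptides expressed intracellularly from a pBAD plasmid library in pooled LB shake-flask culture, induced with 0.3% L-arabinose, DNA abundance read by NGS, three biological replicates, DESeq2 with apeglm shrinkage.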

Row | Sequence | shrunken log2 fold change
1 | RRIRCRPPRLPRPRPRPTFWPRP | 0.174
2 | RRIRMRPPRLPRPRPRPVPTPRP | 0.5
3 | RRIRLRPPRLPRPRPRPGRTPRP | 0.292
4 | RRIRMRPPRLPRPRPRPDPAPRP | 1.13
5 | RRIRIRPPRLPRPRPRPKPCPRP | -0.0965
6 | RRIRHRPPRLPRPRPRPALWPRP | 0.701
7 | RRIRIRPPRLPRPRPRPRYEPRP | -0.011
8 | RRIRFRPPRLPRPRPRPNFCPRP | 0.0651
9 | RRIRMRPPRLPRPRPRPIGDPRP | 0.0215
10 | RRIRRRPPRLPRPRPRPPAVPRP | 0.606
11 | RRIRCRPPRLPRPRPRPEYQPRP | 0.123
12 | RRIRKRPPRLPRPRPRPGRIPRP | -0.0354
13 | RRIRIRPPRLPRPRPRPCVHPRP | -1.13
14 | RRIRGRPPRLPRPRPRPHGLPRP | 0.211
15 | RRIRTRPPRLPRPRPRPGEFPRP | -0.0751
16 | RRIRRRPPRLPRPRPRPLIVPRP | -0.0866
17 | RRIRMRPPRLPRPRPRPANSPRP | 0.0248
18 | RRIRNRPPRLPRPRPRPCANPRP | 0.0435
19 | RRIRERPPRLPRPRPRPSPVPRP | -0.268
20 | RRIRCRPPRLPRPRPRPNTFPRP | -0.664
21 | RRIRVRPPRLPRPRPRPQSRPRP | 0.0616
22 | RRIRTRPPRLPRPRPRPVAKPRP | 0.111
23 | RRIRPRPPRLPRPRPRPHHMPRP | -0.778

Row | Sequence | shrunken log2 fold change
24 | RRIRIRPPRLPRPRPRPIDSPRP | 0.0203
25 | RRIRERPPRLPRPRPRPACPPRP | -0.0623
26 | RRIRDRPPRLPRPRPRPARWPRP | 0.824
27 | RRIRWRPPRLPRPRPRPDYHPRP | -0.219
28 | RRIRERPPRLPRPRPRPAALPRP | -0.0784
29 | RRIRHRPPRLPRPRPRPWCKPRP | -0.111
30 | RRIRNRPPRLPRPRPRPEFMPRP | 0.0662
31 | RRIRARPPRLPRPRPRPFPMPRP | 0.335
32 | RRIRPRPPRLPRPRPRPRSSPRP | 0.151
33 | RRIRARPPRLPRPRPRPHSFPRP | 0.00388
34 | RRIRERPPRLPRPRPRPGDNPRP | -0.0779
35 | RRIRKRPPRLPRPRPRPEKVPRP | 0.112
36 | RRIRLRPPRLPRPRPRPLVYPRP | -0.335
37 | RRIRMRPPRLPRPRPRPHKMPRP | 0.193
38 | RRIRLRPPRLPRPRPRPNEIPRP | 0.0349
39 | RRIRPRPPRLPRPRPRPRDMPRP | 0.201
40 | RRIRKRPPRLPRPRPRPMWRPRP | 0.481
41 | RRIRNRPPRLPRPRPRPVWFPRP | -0.113
42 | RRIRSRPPRLPRPRPRPIKCPRP | -0.0332
43 | RRIRFRPPRLPRPRPRPQMIPRP | -0.484
44 | RRIRTRPPRLPRPRPRPAGEPRP | 0.323
45 | RRIRQRPPRLPRPRPRPVCTPRP | 0.0864
46 | RRIRTRPPRLPRPRPRPNVMPRP | 0.0814

Row | Sequence | shrunken log2 fold change
47 | RRIRKRPPRLPRPRPRPFDTPRP | -0.0262
48 | RRIRIRPPRLPRPRPRPEPPPRP | 0.254
49 | RRIRQRPPRLPRPRPRPIMFPRP | -0.144
50 | RRIRCRPPRLPRPRPRPWHTPRP | -0.261
51 | RRIRSRPPRLPRPRPRPRFHPRP | -0.302
52 | RRIRPRPPRLPRPRPRPTKHPRP | -0.131
53 | RRIRQRPPRLPRPRPRPQIEPRP | -0.0133
54 | RRIRWRPPRLPRPRPRPGWNPRP | 0.238
55 | RRIRYRPPRLPRPRPRPKAGPRP | -0.118
56 | RRIRTRPPRLPRPRPRPDMEPRP | -0.132
57 | RRIRDRPPRLPRPRPRPLKSPRP | 0.00491
58 | RRIRLRPPRLPRPRPRPPDCPRP | 0.0366
59 | RRIRRRPPRLPRPRPRPIEQPRP | 0.0304
60 | RRIRTRPPRLPRPRPRPPTVPRP | 0.44
61 | RRIRRRPPRLPRPRPRPHCIPRP | 0.0457
62 | RRIRRRPPRLPRPRPRPTGFPRP | 0.728
63 | RRIRGRPPRLPRPRPRPHPAPRP | 0.853
64 | RRIRMRPPRLPRPRPRPGYHPRP | 0.0695
65 | RRIRSRPPRLPRPRPRPNRDPRP | -0.233
66 | RRIRCRPPRLPRPRPRPNADPRP | 0.342
67 | RRIRERPPRLPRPRPRPYTYPRP | -0.0595
68 | RRIRNRPPRLPRPRPRPMNAPRP | -0.281
69 | RRIRNRPPRLPRPRPRPCFRPRP | -0.241

Row | Sequence | shrunken log2 fold change
70 | RRIRWRPPRLPRPRPRPYPHPRP | -0.184
71 | RRIRDRPPRLPRPRPRPMVTPRP | 0.769
72 | RRIRNRPPRLPRPRPRPPLCPRP | 0.167
73 | RRIRYRPPRLPRPRPRPIALPRP | -0.0389
74 | RRIRTRPPRLPRPRPRPEWLPRP | 0.203
75 | RRIRHRPPRLPRPRPRPTDLPRP | -0.154
76 | RRIRCRPPRLPRPRPRPIMHPRP | -0.135
77 | RRIRLRPPRLPRPRPRPSWPPRP | 0.00705
78 | RRIRWRPPRLPRPRPRPDTVPRP | -0.0246
79 | RRIRDRPPRLPRPRPRPQQLPRP | -0.0103
80 | RRIRARPPRLPRPRPRPMPCPRP | 0.535
81 | RRIRARPPRLPRPRPRPLQQPRP | 0.752
82 | RRIRRRPPRLPRPRPRPPSPPRP | 0.875
83 | RRIRGRPPRLPRPRPRPVASPRP | 0.623
84 | RRIRYRPPRLPRPRPRPCINPRP | -0.00114
85 | RRIRPRPPRLPRPRPRPHQIPRP | 1.04
86 | RRIRGRPPRLPRPRPRPYEIPRP | -0.132
87 | RRIRFRPPRLPRPRPRPCFIPRP | -0.564
88 | RRIRPRPPRLPRPRPRPSSEPRP | 0.174
89 | RRIRNRPPRLPRPRPRPEYAPRP | -0.175
90 | RRIRPRPPRLPRPRPRPKEWPRP | -0.00152
91 | RRIRQRPPRLPRPRPRPQRMPRP | -0.0094
